Reference: paper PMC6898792 (2019)

Assays:
VEGFR2 (monomer) = VEGFR2 (monomer) (Homo sapiens, UniProt P35968); assay: global fit
VEGFR2 (dimer) = VEGFR2 (dimer) (Homo sapiens, UniProt P35968); assay: global fit
VEGFR2 (dimer), sequence (P35968 20-1356): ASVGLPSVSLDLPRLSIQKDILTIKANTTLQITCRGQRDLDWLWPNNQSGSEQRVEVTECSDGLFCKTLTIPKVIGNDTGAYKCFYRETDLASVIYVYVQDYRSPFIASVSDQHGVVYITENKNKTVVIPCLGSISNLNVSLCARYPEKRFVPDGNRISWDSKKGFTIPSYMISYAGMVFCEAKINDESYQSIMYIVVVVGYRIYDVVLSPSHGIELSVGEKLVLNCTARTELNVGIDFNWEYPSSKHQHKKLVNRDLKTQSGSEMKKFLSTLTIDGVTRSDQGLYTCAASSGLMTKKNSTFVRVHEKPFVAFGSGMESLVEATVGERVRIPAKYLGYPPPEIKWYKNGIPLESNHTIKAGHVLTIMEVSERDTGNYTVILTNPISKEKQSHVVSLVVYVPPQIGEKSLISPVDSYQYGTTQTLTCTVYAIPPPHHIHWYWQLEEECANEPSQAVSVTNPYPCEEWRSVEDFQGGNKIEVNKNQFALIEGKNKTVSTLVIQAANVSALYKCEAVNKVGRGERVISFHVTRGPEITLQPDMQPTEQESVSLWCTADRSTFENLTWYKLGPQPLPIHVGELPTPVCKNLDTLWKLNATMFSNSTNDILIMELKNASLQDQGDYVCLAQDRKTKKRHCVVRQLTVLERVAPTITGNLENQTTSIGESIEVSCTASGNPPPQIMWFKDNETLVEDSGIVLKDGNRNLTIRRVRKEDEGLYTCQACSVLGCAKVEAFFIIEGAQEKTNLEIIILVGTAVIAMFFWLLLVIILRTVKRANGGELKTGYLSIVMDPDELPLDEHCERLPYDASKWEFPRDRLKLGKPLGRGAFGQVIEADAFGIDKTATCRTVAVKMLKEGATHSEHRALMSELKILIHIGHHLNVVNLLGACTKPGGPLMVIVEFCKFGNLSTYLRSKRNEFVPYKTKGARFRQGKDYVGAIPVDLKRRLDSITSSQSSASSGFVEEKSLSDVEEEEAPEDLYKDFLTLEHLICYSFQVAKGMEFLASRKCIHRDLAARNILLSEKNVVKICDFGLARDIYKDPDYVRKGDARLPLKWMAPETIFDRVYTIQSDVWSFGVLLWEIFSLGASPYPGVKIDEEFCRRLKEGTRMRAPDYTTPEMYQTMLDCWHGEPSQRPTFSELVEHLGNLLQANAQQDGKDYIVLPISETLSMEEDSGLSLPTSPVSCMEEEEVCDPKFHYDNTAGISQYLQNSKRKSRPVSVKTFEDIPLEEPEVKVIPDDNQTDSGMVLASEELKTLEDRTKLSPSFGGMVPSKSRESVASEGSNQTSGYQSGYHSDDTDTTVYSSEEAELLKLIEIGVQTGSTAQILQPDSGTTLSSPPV

VEGFR2 (monomer), sequence (P35968 20-1356): as above

B1: VEGF (protein)
chain: MTDRQTDTAPSPSYHLLPGRRRTVDAAASRGQGPEPAPGGGVEGVGARGVALKLFVQLLGCSRFGGAVVRAGEAEPSGAARSASSGREEPQPEEGEEEEEKEEERGPQWRLGARKPGSWTGEAAVCADSAPAARAPQALARASGRGGRVARRGAEESGPPHSPSRRGSASRAGPGRASETMNFLLSWVHWSLALLLYLHHAKWSQAAPMAEGGGQNHHEVVKFMDVYQRSYCHPIETLVDIFQEYPDEIEYIFKPSCVPLMRCGGCCNDEGLECVPTEESNITMQIMRIKPHQGQHIGEMSFLQHNKCECRPKKDRARQEKKSVRGKGKGQKRKRKKSRYKSWSVPCGPCSERRKHLFVQDPQTCKCSCKNTDSRCKARQLELNERTCRCDKPRR
VEGFR2 (monomer)
  Kd: 10 nM
VEGFR2 (dimer)
  Kd: 0.23 nM
